First the molecules themselves.
B1: recombinant phage displaying polypeptide SEQ ID NO: 63 (protein, T7 phage, not shown: large carriers)
chain: SNFVRSPSAWYDPETGTWYDAAWHLGELVWATYYDPETGTWEPDWQRMLGQ
modifications: not fully specified; ends and bridges not checked
B2: recombinant phage displaying polypeptide SEQ ID NO: 65 (protein, T7 phage, not shown: large carriers)
chain: GPYNIPDSAVYDPETGTWYDAAWHLGELVWATYYDPETGTWEPDWQRMLGQ
modifications: ends and bridges not checked
B3: recombinant phage displaying polypeptide SEQ ID NO: 66 (protein, T7 phage, not shown: large carriers)
chain: B2 chain with G1W, Y3L, I5A, D7S, V10F
modifications: ends and bridges not checked
B4: recombinant phage displaying polypeptide SEQ ID NO: 71 (protein, T7 phage, not shown: large carriers)
chain: DGVGPGSRGVYDPETGTWYDAAWHLGELVWATYYDPETGTWEPDWQRMLGQ
modifications: ends and bridges not checked
B5: recombinant phage displaying polypeptide SEQ ID NO: 64 (protein, T7 phage, not shown: large carriers)
chain: IPYGFPGRGEYDPETGTWYDAAWHLGELVWATYYDPETGTWEPDWQRMLGQ
modifications: ends and bridges not checked
B6: recombinant phage displaying polypeptide SEQ ID NO: 70 (protein, T7 phage, not shown: large carriers)
chain: B5 chain with I1W, P2M, Y3E, G4F, F5Y, E10V
modifications: ends and bridges not checked
B7: recombinant phage displaying polypeptide SEQ ID NO: 67 (protein, T7 phage, not shown: large carriers)
chain: VPPRFSSSAQYDPETGTWYDAAWHLGELVWATYYDPETGTWEPDWQRMLGQ
modifications: ends and bridges not checked
B8: recombinant phage displaying polypeptide SEQ ID NO: 79 (protein, T7 phage, not shown: large carriers)
chain: B7 chain with V1G, P2S, P3C, R4K, A9C, Q10H
modifications: ends and bridges not checked; also: displayed on T7 phage coat protein g10
B9: recombinant phage displaying polypeptide SEQ ID NO: 69 (protein, T7 phage, not shown: large carriers)
chain: B7 chain with P2V, P3R, R4V, F5D, S6H, Q10V
modifications: ends and bridges not checked
B10: recombinant phage displaying polypeptide SEQ ID NO: 72 (protein, T7 phage, not shown: large carriers)
chain: FVSSLPNSAMYDPETGTWYDAAWHLGELVWATYYDPETGTWEPDWQRMLGQ
modifications: ends and bridges not checked
B11: recombinant phage displaying polypeptide SEQ ID NO: 57 (protein, T7 phage, not shown: large carriers)
chain: GPGISAFSPGRGVYDPETGTWYDAAWHLGELVWATYYDPETGTWEPDWQRMLGQ
modifications: ends and bridges not checked
B12: recombinant phage displaying polypeptide SEQ ID NO: 68 (protein, T7 phage, not shown: large carriers)
chain: FLVGLHAGAVYDPETGTWYDAAWHLGELVWATYYDPETGTWEPDWQRMLGQ
modifications: ends and bridges not checked
B13: recombinant phage displaying polypeptide SEQ ID NO: 80 (protein, T7 phage, not shown: large carriers)
chain: LIPPGGISPWYDPETGTWYDAAWHLGELVWATYYDPETGTWEPDWQRMLGQ
modifications: ends and bridges not checked
B14: polypeptide p17 (peptide)
peptide: B11 chain
B15: variant polypeptide p17_R50A (peptide)
peptide: B11 chain with R50A
B16: variant polypeptide p17_D47A (peptide)
peptide: B11 chain with D47A
B17: variant polypeptide p17_W48A (peptide)
peptide: B11 chain with W48A
B18: variant polypeptide p17_P46A (peptide)
peptide: B11 chain with P46A

Where a chain is given by its changes, count along the chain named. Ends that are not written are not given here.

One test deals with human Fc region manufactured by Jackson ImmunoResearch Laboratories, Inc. (human). Kind of test: phage ELISA, HRP-labelled Fc. On the technique in general: An ELISA detects its analyte on a solid surface through an enzyme-linked reagent.
For the molecule B1, the O.D. 415 came out at 0.272.

Molecule DAAWHLGELVWATYYDPETGTWKPDWRMMGVP (peptide, T7 phage, not shown: large carriers, ends and bridges not checked) [recombinant phage displaying polypeptide SEQ ID NO: 36] registered an O.D. 415 of 0.287.

As to DAAWHLGELVWATYYDPETGTWQPDWDIMAGH (peptide, T7 phage, not shown: large carriers, ends and bridges not checked) [recombinant phage displaying polypeptide SEQ ID NO: 31], the O.D. 415 turned out to be 0.295.

For the molecule B2, the O.D. 415 stood at 0.291.

Take B3: the O.D. 415 was found to be 0.182.

YDPGTGTWRSWLSFNVG (peptide, T7 phage, not shown: large carriers, ends and bridges not checked) [recombinant phage displaying polypeptide SEQ ID NO: 5] had an O.D. 415 of 0.155.

On to EAWHLGELVWATYYDPETGTWRPDWSRMSGR (peptide, T7 phage, not shown: large carriers, ends and bridges not checked) [recombinant phage displaying polypeptide SEQ ID NO: 55], for which the O.D. 415 came out at 0.252.

Consider YDPRTGTWRRSSLSYSG (peptide, T7 phage, not shown: large carriers, ends and bridges not checked) [recombinant phage displaying polypeptide SEQ ID NO: 9], for which the O.D. 415 is 0.193.

Molecule B4 came in with an O.D. 415 of 0.219.

Consider DAAWHLGELVWATYYDPETGTWLPDWQTMAQK (peptide, T7 phage, not shown: large carriers, ends and bridges not checked) [recombinant phage displaying polypeptide SEQ ID NO: 26], for which the O.D. 415 was 0.43.

Molecule DAAWHLGELVWATYYDPETGTWLPDWDYMSSK (peptide, T7 phage, not shown: large carriers, ends and bridges not checked) [recombinant phage displaying polypeptide SEQ ID NO: 37] returned an O.D. 415 of 0.235.

YDPVTGTWTSSIASWMG (peptide, T7 phage, not shown: large carriers, ends and bridges not checked) [recombinant phage displaying polypeptide SEQ ID NO: 8] showed an O.D. 415 of 0.223.

Turning to B5, the O.D. 415 was 0.213.

B6 had an O.D. 415 of 0.189.

In turn, GAVYRRSFYDPRTGTWRSSIAYRGG (peptide, T7 phage, not shown: large carriers, ends and bridges not checked) [recombinant phage displaying polypeptide SEQ ID NO: 19] displayed an O.D. 415 of 0.353.

For the molecule DAAWHLGELVWATYYDPETGTWTPDWNAMSQR (peptide, T7 phage, not shown: large carriers, ends and bridges not checked) [recombinant phage displaying polypeptide SEQ ID NO: 39], the O.D. 415 amounted to 0.273.

On to YDPGTGTWRSYLRFGGG (peptide, T7 phage, not shown: large carriers, ends and bridges not checked) [recombinant phage displaying polypeptide SEQ ID NO: 3], for which the O.D. 415 is 0.278.

As to YDPWTGTWRSFIWGGGG (peptide, T7 phage, not shown: large carriers, ends and bridges not checked) [recombinant phage displaying polypeptide SEQ ID NO: 6], the O.D. 415 was found to be 0.149.

Consider B7, for which the O.D. 415 was found to be 0.25.

B8 displayed an O.D. 415 of 0.329.

Molecule B9 showed an O.D. 415 of 0.201.

TGRGRSARYDPRTGTWRSSIAYGGG (peptide, T7 phage, not shown: large carriers, ends and bridges not checked) [recombinant phage displaying polypeptide SEQ ID NO: 15]: the O.D. 415 came to 0.396.

B10 had an O.D. 415 of 0.229.

For GSVVRWRGYDPRTGTWRSSIAYGGG (peptide, T7 phage, not shown: large carriers, ends and bridges not checked) [recombinant phage displaying polypeptide SEQ ID NO: 18], the O.D. 415 is 0.36.

With SWRRRGSSYDPRTGTWRSSIAYGGG (peptide, T7 phage, not shown: large carriers, ends and bridges not checked) [recombinant phage displaying polypeptide SEQ ID NO: 14], the O.D. 415 was found to be 0.282.

DAAWHLGELVWATYYDPETGTWEPDWSKMRPQ (peptide, T7 phage, not shown: large carriers, ends and bridges not checked) [recombinant phage displaying polypeptide SEQ ID NO: 34] returned an O.D. 415 of 0.281.

With HWVNGRSGYDPRTGTWRSSIAYGGG (peptide, T7 phage, not shown: large carriers, ends and bridges not checked) [recombinant phage displaying polypeptide SEQ ID NO: 16], the O.D. 415 was 0.373.

Molecule DAAWHLGELVWATYYDPETGTWLPDWDVMVRQ (peptide, T7 phage, not shown: large carriers, ends and bridges not checked) [recombinant phage displaying polypeptide SEQ ID NO: 32] yielded an O.D. 415 of 0.352.

With DAAWHLGELVWATYYDPETGTWMPDWDRMLRR (peptide, T7 phage, not shown: large carriers, ends and bridges not checked) [recombinant phage displaying polypeptide SEQ ID NO: 38], the O.D. 415 was determined as 0.29.

Regarding YDPYTGTWRSSIWVLSG (peptide, T7 phage, not shown: large carriers, ends and bridges not checked) [recombinant phage displaying polypeptide SEQ ID NO: 4], the O.D. 415 amounted to 0.165.

B11: the O.D. 415 worked out at 0.229.

For B12, the O.D. 415 turned out to be 0.186.

As for DAAWHLGELVWATYYDPETGTWRPDWAVMATP (peptide, T7 phage, not shown: large carriers, ends and bridges not checked) [recombinant phage displaying polypeptide SEQ ID NO: 35], the O.D. 415 amounted to 0.32.

Molecule AGSRRAHGYDPRTGTWRSSIAYGGG (peptide, T7 phage, not shown: large carriers, ends and bridges not checked) [recombinant phage displaying polypeptide SEQ ID NO: 12] displayed an O.D. 415 of 0.267.

With DAAWHLGELVWATYYDPETGTWEPDWKLMQRP (peptide, T7 phage, not shown: large carriers, ends and bridges not checked) [recombinant phage displaying polypeptide SEQ ID NO: 30], the O.D. 415 was 0.287.

In the case of YDPRTGTWLLYASRLLG (peptide, T7 phage, not shown: large carriers, ends and bridges not checked) [recombinant phage displaying polypeptide SEQ ID NO: 7], the O.D. 415 was found to be 0.214.

The molecule B13 gave an O.D. 415 of 0.215.

Take DAAWHLGELVWATYYDPETGTWVPDWERMKQH (peptide, T7 phage, not shown: large carriers, ends and bridges not checked) [recombinant phage displaying polypeptide SEQ ID NO: 33]: the O.D. 415 was 0.305.

Another test concerns the target Fc region prepared from human monoclonal IgG by papain digestion (human). As to the kind of experiment: SPR, Fc immobilized. On the technique in general: Surface plasmon resonance follows binding to a sensor surface in real time, without labels.
In general, Kd refers to the free concentration of one partner at which half of the binding sites on the other are occupied at equilibrium, for simple one-to-one binding. Read a low Kd as tighter binding. DAAWHLGELVWATYYDPETGTWLPDWQTMAQK [polypeptide pep21] returned a Kd of 100 nM. This counts as sub-micromolar.

The molecule B14 displayed a Kd of 1.6 nM. Against the preceding molecule, the Kd is about 62-fold lower.

In turn, B15 had a Kd of 7.8 nM. Against the preceding molecule, the Kd is about 4.9-fold higher.

For the molecule B16, the Kd was found to be 45 nM. Compared with the last molecule, the Kd is about 5.8-fold higher.

As to B17, the Kd came to 200 nM and the fold decrease of binding activity against p17 was above 100 times.

For B18, the Kd turned out to be 5.6 nM. In other words, the single-digit nanomolar range.

As for DAAWHLGELVWATYYDPETGTWAPDWRLMQGQ [polypeptide pep11], the Kd amounted to 510 nM. Against the preceding molecule, the Kd is about 91-fold higher.

In the case of DAAWHLGELVWATYYDPETGTWQPDWLYMTTR [polypeptide pep14], the Kd worked out at 120 nM.

For the origin of these results see patent US20150353608A1.
